This is an account of results in paper PMC11239673, “Structural basis for the bi-specificity of USP25 and USP28 inhibitors” (EMBO Reports, 2024).

“And” between values parts separate entries of the source, which are not always exact repeats. Identical values can stand only once.

Settings in all cases: remark: other sources report otherwise
In assay [1] the target is T1, full-length USP25 (USP25 1-1055) (human), Q9UHP3.
T1 chain: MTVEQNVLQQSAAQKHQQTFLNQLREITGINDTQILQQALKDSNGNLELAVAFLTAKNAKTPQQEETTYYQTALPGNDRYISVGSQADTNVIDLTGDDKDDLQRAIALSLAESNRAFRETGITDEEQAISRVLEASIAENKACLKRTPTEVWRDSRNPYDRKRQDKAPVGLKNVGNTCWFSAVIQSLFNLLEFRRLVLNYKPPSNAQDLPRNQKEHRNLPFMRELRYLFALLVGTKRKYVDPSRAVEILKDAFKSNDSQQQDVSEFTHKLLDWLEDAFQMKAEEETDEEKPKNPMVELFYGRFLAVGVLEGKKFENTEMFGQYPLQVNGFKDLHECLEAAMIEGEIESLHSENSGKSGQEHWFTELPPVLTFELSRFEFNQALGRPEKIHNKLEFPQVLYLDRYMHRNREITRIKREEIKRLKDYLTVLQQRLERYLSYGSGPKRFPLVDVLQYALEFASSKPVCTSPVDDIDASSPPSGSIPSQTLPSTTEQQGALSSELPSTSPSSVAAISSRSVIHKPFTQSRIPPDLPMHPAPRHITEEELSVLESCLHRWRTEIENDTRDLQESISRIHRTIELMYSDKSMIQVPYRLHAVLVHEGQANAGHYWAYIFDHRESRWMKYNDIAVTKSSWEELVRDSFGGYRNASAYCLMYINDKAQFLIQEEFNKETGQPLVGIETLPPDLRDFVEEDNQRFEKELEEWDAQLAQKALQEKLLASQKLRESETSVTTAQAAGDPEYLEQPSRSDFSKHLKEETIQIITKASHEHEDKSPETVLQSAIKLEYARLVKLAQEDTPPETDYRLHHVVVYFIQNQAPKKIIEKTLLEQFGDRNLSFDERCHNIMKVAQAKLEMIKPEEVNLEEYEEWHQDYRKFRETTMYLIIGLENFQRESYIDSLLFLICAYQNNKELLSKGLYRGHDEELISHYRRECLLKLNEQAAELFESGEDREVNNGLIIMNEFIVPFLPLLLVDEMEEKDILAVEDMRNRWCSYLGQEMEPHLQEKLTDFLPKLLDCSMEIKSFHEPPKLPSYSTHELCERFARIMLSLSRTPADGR
The assay is described as follows: SEC-MALS; tetramer to dimers; 20 µM USP25fl with DMSO control, 45 min incubation at 4 °C; Superose 6 10/300 GL; 20 mM HEPES pH 8.0, 150 mM NaCl, 1 mM TCEP. (SEC sorts molecules by how far they enter the pores of the column.)

The target in assay [2] is T1, full-length USP25 (USP25 1-1055) …. As to the kind of experiment: SEC-MALS; tetramer to dimers; 20 µM USP25fl with 60 µM AZ1, 45 min incubation at 4 °C; Superose 6 10/300 GL; 20 mM HEPES pH 8.0, 150 mM NaCl, 1 mM TCEP.
Assay [3] has the same target. As to the kind of experiment: SEC-MALS; tetramer to dimers; 10 µM USP25fl with 5, 10 or 20 µM racemic FT206, 45 min incubation at 4 °C; Superose 6 10/300 GL; 20 mM HEPES pH 8.0, 150 mM NaCl, 1 mM TCEP.
For assay [4] the target is unchanged. As to the kind of experiment: SEC-MALS; tetramer to dimers; 10 µM USP25fl with 5, 10 or 20 µM AZ1, 45 min incubation at 4 °C; Superose 6 10/300 GL; 20 mM HEPES pH 8.0, 150 mM NaCl, 1 mM TCEP.
For assay [5] the target is unchanged. The assay is described as follows: SEC-MALS; tetramer to dimers; 20 µM USP25fl with 60 µM racemic FT206, 45 min incubation at 4 °C; Superose 6 10/300 GL; 20 mM HEPES pH 8.0, 150 mM NaCl, 1 mM TCEP.
For assay [6] the target is unchanged. As to the kind of experiment: SEC-MALS; tetramer to dimers; 10 µM USP25fl with DMSO control, 45 min incubation at 4 °C; Superose 6 10/300 GL; 20 mM HEPES pH 8.0, 150 mM NaCl, 1 mM TCEP.
Assay [7] shares this target. As to the kind of experiment: SEC-MALS; tetramer to dimers; 20 µM USP25fl with 60 µM VSM, 45 min incubation at 4 °C; Superose 6 10/300 GL; 20 mM HEPES pH 8.0, 150 mM NaCl, 1 mM TCEP.

B1: full-length USP25 (USP25 1-1055), Q9UHP3 1-1055 (enzyme)
chain: T1 chain
Take B1: the percent dimers (DMSO control) in assay [1] came out at 26.2%. Also, in assay [2], the percent dimers (with 60 µM AZ1) amounted to 80.8%. Moreover, in assay [3], the percent dimers (with 10 µM FT206) amounted to 50% and the percent dimers (with 20 µM FT206) is 76%. Further, the percent dimers (with 20 µM AZ1) in assay [4] was 46%. This molecule displayed a percent dimers (with 60 µM FT206) in assay [5] of 77.7%. In assay [6], this molecule showed a percent dimers of 25%, a percent dimers (DMSO control of the AZ1 series) of 23%, a percent dimers (DMSO control of the FT206 series) of 28% and a percent tetramers of 75%. The stoichiometry N in assay [6] is 4 and 2. Besides, the percent dimers (with 60 µM VSM) in assay [7] was 75%.

Broadly, the stoichiometry N is the number of molecules, sites or subunits per partner or assembly.
